For the assay, the target named is septin-7 (commercially purified, LSBio) (UniProt Q16181). Description: MST.
Chain of septin-7 (commercially purified, LSBio) (Q16181 whole entry): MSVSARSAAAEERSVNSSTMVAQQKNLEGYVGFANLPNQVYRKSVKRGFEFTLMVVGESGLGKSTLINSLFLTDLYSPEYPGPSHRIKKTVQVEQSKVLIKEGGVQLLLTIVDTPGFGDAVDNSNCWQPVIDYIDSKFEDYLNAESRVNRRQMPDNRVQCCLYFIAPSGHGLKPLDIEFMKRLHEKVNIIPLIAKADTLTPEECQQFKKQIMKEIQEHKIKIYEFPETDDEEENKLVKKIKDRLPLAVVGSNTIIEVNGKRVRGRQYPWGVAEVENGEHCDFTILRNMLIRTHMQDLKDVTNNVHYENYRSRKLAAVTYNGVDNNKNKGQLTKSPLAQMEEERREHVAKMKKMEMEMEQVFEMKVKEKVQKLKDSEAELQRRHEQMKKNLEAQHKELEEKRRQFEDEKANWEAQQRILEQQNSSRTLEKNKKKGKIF

As usually defined, the Kd is a measure of binding affinity in units of concentration. Read a high Kd as weaker binding. Consider “SOD1 trimer, HG trimer-stabilising mutant (printed as H46G-G108H and as H46Q-G108H) (from UniProt P00441 1-154) (enzyme)”, for which the Kd is 7.48 µM.
